Laboratory results taken from publication doi:10.1101/695700.

Target: complement C3
Assay: SPR

B1: recombinant HC1 (rHC1), wild type; heavy chain 1 of inter-α-inhibitor (natural protein)
chain: SKSSEKRQAVDTAVDGVFIRSLKVNCKVTSRFAHYVVTSQVVNTANEAREVAFDLEIPKTAFISDFAVTADGNAFIGDIKDKVTAWKQYRKAAISGENAGLVRASGRTMEQFTIHLTVNPQSKVTFQLTYEEVLKRNHMQYEIVIKVKPKQLVHHFEIDVDIFEPQGISKLDAQASFLPKELAAQTIKKSFSGKKGHVLFRPTVSQQQSCPTCSTSLLNGHFKVTYDVSRDKICDLLVANNHFAHFFAPQNLTNMNKNVVFVIDISGSMRGQKVKQTKEALLKILGDMQPGDYFDLVLFGTRVQSWKGSLVQASEANLQAAQDFVRGFSLDEATNLNGGLLRGIEILNQVQESLPELSNHASILIMLTDGDPTEGVTDRSQILKNVRNAIRGRFPLYNLGFGHNVDFNFLEVMSMENNGRAQRIYEDHDATQQLQGFYSQVAKPLLVDVDLQYPQDAVLALTQNHHKQYYEGSEIVVAGRIADNKQSSFKADVQAHGEGQEFSITCLVDEEEMKKLLRERGHMLENHVERLWAYLTIQELLAKRMKVDREERANLSSQALQMSLDYGFVTPLTSMSIRGMADQDGLKPTIDKPSEDSPPLEMLGPRRTFVLSALQPSPTHSSSNTQRLPDRVTGVDTD
Work on B1 yielded a Kd of 360 nM.
